B1: Cyclin-Y (Homo sapiens), Q8ND76 (parent)
chain: MGNTTSCCVSSSPKLRRNAHSRLESYRPDTDLSREDTGCNLQHISDRENIDDLNMEFNPSDHPRASTIFLSKSQTDVREKRKSLFINHHPPGQIARKYSSCSTIFLDDSTVSQPNLKYTIKCVALAIYYHIKNRDPDGRMLLDIFDENLHPLSKSEVPPDYDKHNPEQKQIYRFVRTLFSAAQLTAECAIVTLVYLERLLTYAEIDICPANWKRIVLGAILLASKVWDDQAVWNVDYCQILKDITVEDMNELERQFLELLQFNINVPSSVYAKYYFDLRSLAEANNLSFPLEPLSRERAHKLEAISRLCEDKYKDLRRSARKRSASADNLTLPRWSPAIIS

Variants of: B1
Conditions: with cul1_human CUL1, Q13616
Chain of cul1_human CUL1, Q13616 (Q13616 whole entry): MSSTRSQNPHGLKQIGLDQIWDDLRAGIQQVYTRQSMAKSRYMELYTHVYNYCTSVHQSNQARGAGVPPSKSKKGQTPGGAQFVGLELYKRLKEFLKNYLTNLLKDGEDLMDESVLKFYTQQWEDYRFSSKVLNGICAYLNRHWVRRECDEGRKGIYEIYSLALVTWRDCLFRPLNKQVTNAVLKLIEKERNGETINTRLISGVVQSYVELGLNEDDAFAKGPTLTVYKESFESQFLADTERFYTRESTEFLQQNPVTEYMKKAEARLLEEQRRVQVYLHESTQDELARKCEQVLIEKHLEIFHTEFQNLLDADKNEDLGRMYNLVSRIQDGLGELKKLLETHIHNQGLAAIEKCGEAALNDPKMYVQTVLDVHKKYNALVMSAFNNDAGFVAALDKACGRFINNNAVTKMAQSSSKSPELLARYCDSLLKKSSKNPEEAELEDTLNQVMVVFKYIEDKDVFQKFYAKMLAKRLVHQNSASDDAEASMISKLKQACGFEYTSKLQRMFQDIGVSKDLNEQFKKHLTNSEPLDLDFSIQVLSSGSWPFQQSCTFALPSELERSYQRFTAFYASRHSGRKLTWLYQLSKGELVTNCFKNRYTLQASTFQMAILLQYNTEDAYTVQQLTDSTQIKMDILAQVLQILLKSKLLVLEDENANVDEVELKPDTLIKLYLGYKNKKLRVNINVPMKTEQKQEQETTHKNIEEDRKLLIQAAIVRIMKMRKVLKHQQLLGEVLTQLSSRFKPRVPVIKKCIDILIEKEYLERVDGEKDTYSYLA
S71A was tested, and the “effect of a mutation on the interaction” value was “decreasing interaction”.

Variants of: B1
Conditions: with cul1_human CUL1, Q13616
Remark: another data set of the same source
For S73A, the “effect of a mutation on the interaction” value was “decreasing interaction”.

Variants of: B1
Conditions: with cul1_human CUL1, Q13616
Remark: another data set of the same source
S71A;S73A was tested, and the “effect of a mutation on the interaction” value was “disrupting interaction”.
